# B1: Nectin-2-ED-hFc (Fc fusion, human, UniProt Q92692 32-361, looked up)
# chain: QDVRVQVLPEVRGQLGGTVELPCHLLPPVPGLYISLVTWQRPDAPANHQNVAAFHPKMGPSFPSPKPGSERLSFVSAKQSTGQDTEAELQDATLALHGLTVEDEGNYTCEFATFPKGSVRGMTWLRVIAKPKNQAEAQKVTFSQDPTTVALCISKEGRPPARISWLSSLDWEAKETQVSGTLAGTVTVTSRFTLVPSGRADGVTVTCKVEHESFEEPALIPVTLSVRYPPEVSISGYDDNWYLGRTDATLSCDVRSNPEPTGYDWSTTSGTFPTSAVAQGSQLVIHAVDSLFNTTFVCTVTNAVGMGRAEQVIFVRETPNTAGAGATGGI
# modifications: europium N1 ITC chelate (only on the Eu-labeled copy added in solution in the Nectin-2-Nectin-2 assay)
# notes: signal peptide in the construct; Nectin-2, cloned from cDNA of the A549 human lung cancer cell line, extracellular domain a.a; 1-361; Plasmid pcDNA3.1-Nectin-2-ED-hFc; In the Nectin-2-Nectin-2 assay one copy was unlabeled on the plate and the other Eu-labeled in solution; also called Nectin-2 extracellular domain (a.a. 1-361) fused to the human IgG1 Fc region; source: FreeStyle 293 F cells, …
# Molecular target: the molecule itself
# Experiment: ELISA; ELISA-based time-resolved fluorescence spectroscopy assay; unlabeled Nectin-2-ED-hFc immobilised on a Delfia Clear Strip Plate, Eu-labeled Nectin-2-ED-hFc at 3.2 ug/mL added together with anti-Nectin-2 mAb at 30 ug/mL or a human IgG control, 1.5 h at room temperature
protein,measurement,value
B1,binding result,binds

# Source: paper PMC3698035, “Nectin-2 is a potential target for antibody therapy of breast and ovarian cancers” (Molecular Cancer, 2013)
